The text below walks through data of patent EP3757216B1.

Substitutions are numbered along the chain they refer to.

To fix the notation:
B1: FcγRIIa-m11 (receptor)
chain: MGQAAAPPKAVLKLEPPWTNVLQEDSVTLTCQGARSPESDSVLWFHNGNLIPTQTQLTYRFKATSNDSGEYTCQTGQTSLSDPVHLTVLSEWLVLQPPRLEFQEGETIMLRCHSWKDKPLVKVTFFQNGKSQKFSHLDPTFSIPQANHSHSGDYHCTGNIGYTSFSSKPVTITVQGGHHHHHH
B2: FcγRIIa-m10A (receptor)
chain: B1 chain with L57P
B3: FcγRIIa-m10C (receptor)
chain: B1 chain with T19I
B4: FcγRIIa-m10B (receptor)
chain: B1 chain with L43Q
B5: FcγRIIa-m11-Del1 (receptor)
chain: MGQAAAPPKAVLKLEPPWTNVLQEDSVTLTCQGARPESDSVLWFHNGNLIPTQTQLTYRFKATSNDSGEYTCQTGQTSLSDPVHLTVLSEWLVLQPPRLEFQEGETIMLRCHSWKDKPLVKVTFFQNGKSQKFSHLDPTFSIPQANHSHSGDYHCTGNIGYTSFSSKPVTITVQGGHHHHHH
B6: FcγRIIa-m11-Del6 (receptor)
chain: MGQAAAPPKAVLKLEPPWTNVLQEDSVTLTCQGDSVLWFHNGNLIPTQTQLTYRFKATSNDSGEYTCQTGQTSLSDPVHLTVLSEWLVLQPPRLEFQEGETIMLRCHSWKDKPLVKVTFFQNGKSQKFSHLDPTFSIPQANHSHSGDYHCTGNIGYTSFSSKPVTITVQGGHHHHHH
B7: FcγRIIa-m11-Del4 (receptor)
chain: MGQAAAPPKAVLKLEPPWTNVLQEDSVTLTCQGASDSVLWFHNGNLIPTQTQLTYRFKATSNDSGEYTCQTGQTSLSDPVHLTVLSEWLVLQPPRLEFQEGETIMLRCHSWKDKPLVKVTFFQNGKSQKFSHLDPTFSIPQANHSHSGDYHCTGNIGYTSFSSKPVTITVQGGHHHHHH
B8: FcγRIIa-m11-Del3 (receptor)
chain: MGQAAAPPKAVLKLEPPWTNVLQEDSVTLTCQGARSDSVLWFHNGNLIPTQTQLTYRFKATSNDSGEYTCQTGQTSLSDPVHLTVLSEWLVLQPPRLEFQEGETIMLRCHSWKDKPLVKVTFFQNGKSQKFSHLDPTFSIPQANHSHSGDYHCTGNIGYTSFSSKPVTITVQGGHHHHHH
B9: FcγRIIa-m11-Del2 (receptor)
chain: MGQAAAPPKAVLKLEPPWTNVLQEDSVTLTCQGARPSDSVLWFHNGNLIPTQTQLTYRFKATSNDSGEYTCQTGQTSLSDPVHLTVLSEWLVLQPPRLEFQEGETIMLRCHSWKDKPLVKVTFFQNGKSQKFSHLDPTFSIPQANHSHSGDYHCTGNIGYTSFSSKPVTITVQGGHHHHHH
B10: FcγRIIa-m11-Del5 (receptor)
chain: MGQAAAPPKAVLKLEPPWTNVLQEDSVTLTCQGADSVLWFHNGNLIPTQTQLTYRFKATSNDSGEYTCQTGQTSLSDPVHLTVLSEWLVLQPPRLEFQEGETIMLRCHSWKDKPLVKVTFFQNGKSQKFSHLDPTFSIPQANHSHSGDYHCTGNIGYTSFSSKPVTITVQGGHHHHHH
B11: FcγRIIa-m11-Del7 (receptor)
chain: MGQAAAPPKAVLKLEPPWTNVLQEDSVTLTCQDSVLWFHNGNLIPTQTQLTYRFKATSNDSGEYTCQTGQTSLSDPVHLTVLSEWLVLQPPRLEFQEGETIMLRCHSWKDKPLVKVTFFQNGKSQKFSHLDPTFSIPQANHSHSGDYHCTGNIGYTSFSSKPVTITVQGGHHHHHH

The target in one assay is gamma-globulin preparation (The Chemo-Sero-Therapeutic Research Institute), a human antibody (human). In words: ELISA on immobilised human gamma-globulin, anti-6His detection; antibody binding activity after acid treatment (pH 3.0, 24 h, 30 C) divided by that without treatment. (In general: An ELISA detects its analyte on a solid surface through an enzyme-linked reagent.)
Molecule B1 registered an RESIDUAL ACTIVITY [%] of 95.3%.

For B2, the RESIDUAL ACTIVITY [%] was determined as 77.3%. On to B3, for which the RESIDUAL ACTIVITY [%] stood at 72.9%.

B4 yielded an RESIDUAL ACTIVITY [%] of 46.9%.

Another assay has the same target. In words: ELISA on immobilised human gamma-globulin, anti-6His detection; antibody binding activity after acid treatment (pH 3.0, 72 h, 30 C) divided by that without treatment.
B5 gave an RESIDUAL ACTIVITY [%] of 89.8%. As for B6, the RESIDUAL ACTIVITY [%] was 25.4%. Turning to B1, the RESIDUAL ACTIVITY [%] is 83.6%. In the case of B7, the RESIDUAL ACTIVITY [%] was found to be 76.7%. B8 came in with an RESIDUAL ACTIVITY [%] of 72.4%. The molecule B9 gave an RESIDUAL ACTIVITY [%] of 81.3%. In turn, B10 yielded an RESIDUAL ACTIVITY [%] of 86.5%. Still for that read-out and setting: the figure for B11 is 33.3%.
